As usually defined, the MRT is a mean duration of stay, worked out from the concentration-time curve.

Where two headings read alike, the source gives them in different places.

A short description of series [1]: Pharmacokinetics in Sprague Dawley rats after i.v. and s.c. single dose.
Protocol: (§4) The pharmacokinetic of the compounds of the examples is investigated in male Sprague Dawley rats after intravenous (i.v.) and subcutaneous (s.c.) single dose administration.
(§5) Test compounds are diluted to a final concentration of 1 mg/mL in a dilution buffer consisting of: Glycine 20 mg/mL, mannitol 2 mg/mL, NaHCO3 2.5 mg/mL, pH adjusted to 8.2.
(§6) The test compounds are studied in male Sprague Dawley rats weighing 250 g. The test compounds are administered as a single injection either i.v. in the tail vein or s.c. in the neck with a 25 G needle at a dose of 60 nmol/kg body weight.
(§7) At each sampling time 0.25 ml blood is drawn from the tail vein using a 25 G needle. The blood is sampled into a EDTA coated test tube and stored on ice until centrifugation at 1200×G for 10 min at 4° C. Plasma is transferred to a Micronic tube and stored at −20° C. until analysis.
(§8) A non-compartmental pharmacokinetic analysis is performed on mean concentration-time profiles of each test compound using WinNonlin Professional (Pharsight Inc., Mountain View, Calif., USA). The pharmacokinetic parameter estimates of terminal half-life (t1/2) and mean residence time (MRT) are calculated.
The target of a further series is T1, chymotrypsin (Bos taurus, UniProt P00766).
T1 construct: purchased Roche
Kind of series: Protease stability, incubation with chymotrypsin. Type of series: in vitro ADME. As to conditions: incubation for 4 hours with chymotrypsin. From the text:
(§1) The compound of interest is digested by a relevant protease (Trypsin, Chymotrypsin, Pepsin, Elastase, Factor VIIa, Factor Xa, Proteinase K, Carboxy peptidase, DPPIV, Neutral Endopeptidase, Granzyme B, Proline-endopeptidase, Staphylococcal peptidase I, Thermolysin, Thrombin, Arg-C proteinase, Asp-N endopeptidase, Caspase 1-10, Clostripain, Enterokinase, Glutamyl endopeptidase, Granzyme B, LysC, LysN, Proline-endopeptidase and Staphylococcal peptidase I or tissue extracts.) in an appropriate buffer (e.g. PBS or ammonium bicarbonate) at 37° C. for up till 24 hrs. Proteolytic degradation is assessed by a HPLC assay.
(§2) 100 μL of test compound solution at 1 mg/mL in ammonium bicarbonate buffer is degraded by enzyme for up till 24 hrs at 37° C. […] These diluted samples are analysed by reversed phase HPLC to estimate the degree of proteolytic digestion.
(§3) 10 μL of the above solution is injected on a reversed phase Vydac C4 2×150 mm column eluted with a linear gradient from 0.1% TFA in water to 100% acetonitrile containing 0.1% TFA over a period of 30 min at a flow rate of 0.2 ml/min. […] Percentage (%) intact compound at time point t=T is calculated from the peak area at time point t=T (AT) and the peak area at t=0 (A0) as (AT/A0)×100%. […] Half life (T1/2) is calculated as one phase decay also by GraphPad Prism software. […]

The next series has as its target T2, elastase (Sus scrofa, UniProt P00772).
T2 construct: purchased Sigma; host or cells: porcine pancreas
Kind of series: Protease stability, incubation with elastase. The series is classed as in vitro ADME, porcine. As to conditions: incubation for 4 hours with elastase.
Excerpt: as §1, §2, §3

The subject of a further series is plasma IGF-1. In words: In vivo dose-response study in hypophysectomised Sprague Dawley rats (plasma IGF-1). As to conditions: Table 5. As for the experimental part:
The in vivo dose-response relationship is studied in hypophysectomised male Sprague Dawley rats. The hypophysectomised rat is a well known and recognised animal model of growth hormone deficiency, where no production of growth hormone occurs after the surgical removal of the pituitary gland. This also leads to low circulating levels of insulin-like growth factor-1 (IGF-1) another important clinical feature of growth hormone deficiency in humans.
The hypophysectomy is performed on 4 week old male rats weighing 90-100 g. The animals entering the study 3-4 weeks after the surgery weighing 100-110 g. Animals with a body weight gain of more than 10% during the 3-4 weeks after surgery are not allowed to enter the study.
Dose response studies are performed using five dose levels of compound 45.4 from 1-150 nmol/rat.

For series [2] the following is noted: in vivo, iv.
Protocol: as §4, §5, §6, §7, §8
Series [3] addresses T3, human growth hormone receptor (BAF-3 GHR cells) (Homo sapiens, UniProt P10912).
T3 construct: expressed in transfected cells; host or cells: BAF-3 (murine pro-B lymphoid cell line)
T3 sequence (P10912 19-638): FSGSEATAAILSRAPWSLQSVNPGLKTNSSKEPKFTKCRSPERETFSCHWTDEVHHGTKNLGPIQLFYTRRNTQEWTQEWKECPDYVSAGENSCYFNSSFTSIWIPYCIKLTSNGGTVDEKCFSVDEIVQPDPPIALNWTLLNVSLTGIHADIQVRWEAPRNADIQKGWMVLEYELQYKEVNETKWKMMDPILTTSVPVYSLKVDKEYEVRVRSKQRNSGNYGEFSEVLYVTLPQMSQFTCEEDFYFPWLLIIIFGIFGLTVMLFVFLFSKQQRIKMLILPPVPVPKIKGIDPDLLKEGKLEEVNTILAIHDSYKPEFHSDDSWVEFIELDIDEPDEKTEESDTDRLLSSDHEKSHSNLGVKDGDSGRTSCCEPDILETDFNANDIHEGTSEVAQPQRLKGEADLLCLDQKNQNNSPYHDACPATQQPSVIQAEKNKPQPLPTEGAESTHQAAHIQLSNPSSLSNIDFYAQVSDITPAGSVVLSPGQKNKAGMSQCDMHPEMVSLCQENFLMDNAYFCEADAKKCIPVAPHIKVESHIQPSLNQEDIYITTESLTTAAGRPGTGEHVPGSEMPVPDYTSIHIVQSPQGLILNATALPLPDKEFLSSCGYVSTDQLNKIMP
Kind of series: BAF-3 GHR assay to determine growth hormone activity. Type of series: cell-based, mouse. As to conditions: Table 5; relative to hGH = 1.0 (def).
Protocol: This clone can be used to evaluate the effect of different growth hormone samples on the survival of the BAF-3 GHR.
The BAF-3 GHR cells are grown in starvation medium (culture medium without growth hormone) for 24 hrs at 37° C., 5% CO2.
The cells are washed and re-suspended in starvation medium and seeded in plates. 10 μL of growth hormone compound or human growth hormone in different concentrations or control is added to the cells, and the plates are incubated for 68 hrs at 37° C., 5% CO2.
AlamarBlue® is added to each well and the cells are then incubated for another 4 hrs. The AlamarBlue® is a redox indicator, and is reduced by reactions innate to cellular metabolism and, therefore, provides an indirect measure of viable cell number.
Finally, the metabolic activity of the cells is measure in a fluorescence plate reader. The absorbance in the samples is expressed in % of cells not stimulated with growth hormone compound or control and from the concentration-response curves the activity (amount of a compound that stimulates the cells with 50%) can be calculated.

T2 sequence (P00772 27-266): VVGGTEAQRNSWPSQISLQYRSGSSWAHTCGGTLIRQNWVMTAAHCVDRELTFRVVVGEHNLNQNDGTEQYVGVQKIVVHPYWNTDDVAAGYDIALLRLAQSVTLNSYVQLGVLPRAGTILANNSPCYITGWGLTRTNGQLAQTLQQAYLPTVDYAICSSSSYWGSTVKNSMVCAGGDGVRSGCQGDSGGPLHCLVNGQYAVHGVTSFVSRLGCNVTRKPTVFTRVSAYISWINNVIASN

In the case of “hGH: wild-type human growth hormone, 191 amino acid residue protein (SEQ ID NO: 1)”, the “T1/2 (i.v. Rat)” value in series [1] (Table 4) and in series [1] (Table 5) was 0.23 h in each case. Moreover, the “Chymotrypsin (% intact GH compound)” value with chymotrypsin is given as 40%. In the series with elastase, the “Elastase (% intact GH compound)” value turned out to be 25%.

Regarding “2-(C20diacid-Trx-γGlu-OEG-OEG-δLys)-carbonylmethylene-S^101-hGH[L101C] [Compound 44.1]”, the “Duration of IGF-1 increase” value with plasma IGF-1 was greater than 48 h. The “T1/2 (i.v. Rat)” value in series [2] came to 5.6 h. Besides, in series [2] (rat, 60 nmol/kg), the mean residence time (MRT) was 7.2 h and the “T1/2” value is given as 5.6 h. For the same substance, in series [3], the In vitro potency amounted to 4.7.

The record behind these values is patent publication US8779109B2, “Growth hormones with prolonged in-vivo efficacy” (Novo Nordisk Health Care AG, priority 2010, dated 2014).
